This is an account of results in patent US20030166537A1, “Use of GDNF for treating corneal defects” (Biopharm Gesellschaft Zur Biotechnologischen Entwicklung …, priority 1999, published 2003).

Where only a bound is given, the exact number is not on record here.

Assay [1] has as its system primary human corneal stromal cells. Kind of assay: proliferation of cultured stromal keratocytes (cell counting, Cell Titer 96 AQueous assay). It is filed as cell-based. Particulars: 20 or 100 ng/ml; serum-free medium; D6; p<0.005. On the procedure: In order to investigate the effect of GDNF on the proliferation of cultured stromal keratocytes the cells were passaged from DMEM +10% FBS into DMEM +1% FBS or into DMEM without FBS at a density of 5×10^4 cells/60 mm dish. Some cultures received recombinant human GDNF at the above-mentioned concentrations. Proliferation was measured after 6 days by counting cells under the phase contrast microscope (50 fields at 100×magnification per condition) as well as trypsinized cells. Also a Cell Titer 96 AQueous One Solution proliferation assay (Promega) was performed according to the manufacturess description. For this calorimetric assay 500 or 1000 cells were grown for 6 days in 96-well-plates (Falcon). Upon addition to the culture well a titrazolium dye is bioreduced by cells into a colored formazan product and the absorbance is quantified at 490 nm. The quantity of the formazan product is proportional to the number of living cells in the well and can therefore serve to estimate proliferation.

For assay [2], the system named is corneal epithelial cells. Description: in vitro wound healing model with herbimycin A. It is filed as cell-based. Conditions: 250 ng/ml GDNF alone; 18 hours. On the procedure: (§1) For in vitro wound healing assays primary corneal epithelial cells and cells from the corneal epithelial cell line were seeded at a density of 5×10^5 onto 60 mm plastic dishes with 2 mm grid (Sarstedt, Numbrecht, Germany) and cultured for 2 days until subconfluency. For experiments with artemin primary cultured rabbit corneal epithelial cells were used. These cells had been isolated with Dispase (1,2 U/ml) and trypsin/EDTA. Rabbit cells had been cultured in medium 500 with additives (Cascade Biologies).
The cell layer was injured under the microscope by inducing several parallel scratches with a soft plastic cell scrubber (Falcon, Becton and Dickinson, Heidelberg, Germany). The tip of the scrubber was cut and measured about 1 mm and consequently the width of the scratch in the cell layer was also about 1 mm. Selected areas in the dishes were marked with a very fine marker pen and consecutive images were taken at different time points at 5×magnification under an inverted phase contrast microscope (Axiovert 25, Zeiss, Jena, Germany) equipped with a video camera. […] For each condition four representative areas were evaluated within three dishes. […] 18 hours later the mean diameter of the same scratch was calculated again and expressed in percent of the diameter at the beginning of the experiment. […]

Assay [3] deals with corneal epithelial cells from the SV40 transformed cell line. Description: in vitro wound healing assay (scratch wound), cell line. Type of assay: cell-based, human. Particulars: 250 ng/ml; 18 h; control 20%±4.5. The method, then: as §1
(§2) The cell layer was injured under the microscope by inducing several parallel scratches with a soft plastic cell scrubber (Falcon, Becton and Dickinson, Heidelberg, Germany). The tip of the scrubber was cut and measured about 1 mm and consequently the width of the scratch in the cell layer was also about 1 mm. Selected areas in the dishes were marked with a very fine marker pen and consecutive images were taken at different time points at 5×magnification under an inverted phase contrast microscope (Axiovert 25, Zeiss, Jena, Germany) equipped with a video camera. Following the experimental injury dishes were incubated in SHEM medium either containing no growth factors (control) or containing either GDNF (250 ng/ml) (recombinant human GDNF expressed in E. coli), NGF (250 ng/ml) (Boehringer Mannheim, Germany) or EGF ([…]). For experiments investigating artemin cells were cultured in medium 500 without additives and 250 ng artemin was added. For each condition four representative areas were evaluated within three dishes. The mean diameter of the scratch in each representative area was set as 100% at the beginning of the experiment. 18 hours later the mean diameter of the same scratch was calculated again and expressed in percent of the diameter at the beginning of the experiment.

The subject of assay [4] is primary human corneal epithelial cells. Description: in vitro wound healing assay (scratch wound), primary cells. Particulars: 250 ng/ml; 18 h; control less than 10%. It is filed as cell-based. The method, then:
as §1, §2

Assay [5] relates to FAK, Pyk2, cRaf, MEK1, Erk 1 and 2, Elk, RSK. Kind of assay: western blot of phosphorylated intracellular signaling proteins in corneal epithelial cells. Type of assay: cell-based, human. The method, then:
In order to investigate which protein kinase cascades are activated by GDNF and artemin, corneal epithelial cells from the cell line were seeded at a density of 5×10^5 cells/75 cm^2 and cultured in SHEM with 10% FBS for one day. Cultures were then washed with PBS and incubated in serum-free SHEM without additives or with GDNF (200 ng/ml) or with artemin (250 ng) for 10 to 40 minutes. After washing with PBS, cultured cells were solubilized in lysis buffer containing 50 mM Tris2Cl (pH8.0), 150 mM NaCl, 0.02% sodium azide, 100 μg/ml phenylmethylsulfonyl fluoride, 1 mM Na3VO4, 1% Triton X-100 and a mixture of several protease inhibitors [complete™, Boehringer Mannheim (1 tablet/30 ml buffer)]. 80 μg total protein per lane was fractionated by NuPAGE 10% SDS-MOPS-Bis-Tris gel or NuPAGE 3-8% Tris-acetate gel (all from NOVEX, San Diego, Calif.) and blotted onto a nitrocellulose membrane. Phosphorylated proteins were detected with phospho-specific antibodies and visualized with the ECL western blot analysis system (Amersham). Antibodies against phospho-Raf(ser259), phospho-MEK1/2(ser217/221), phospho-MAPK (Erk1/2) (thr202/tyr204), phospho-p90 ribosomal S6 kinase (RSK) (ser381) and phospho-Elk-1(ser383) were obtained from New England Biolabs (Beverly, Mass.). Antibody against phospho-FAK (tyr397/tyr407/tyr576/tyr577/tyr861/tyr925) and phospho-Pyk2 (tyr402/tyr579/tyr/580/tyr881) were purchased from Biosource (Camarillo, Calif., USA). A monoclonal antibody against phospho-tyrosine came from Sigma (Deisenhofen, Germany).

The target of assay [6] is T1, Ret (Homo sapiens, UniProt P07949).
T1 construct: The level of phosphorylated Ret (approximately 150 kD) in cultured corneal epithelial cells (control) was low prior to addition of GDNF; endogenous in cells; host or cells: SV40-transformed human corneal epithelial cell line (Araki-Sasaki et al., 1995)
Kind of assay: immuno-precipitation and western blot of tyrosine-phosphorylated Ret in cultured corneal epithelial cells. It is filed as cell-based. Conditions: GDNF 200 ng/ml vs serum-free control cultures.

Assay [7] deals with corneal epithelial cells. Description: modified Boyden chamber migration assay. It is filed as cell-based. Conditions: 250 ng/ml in lower well. The method, then: In order to further evaluate the chemotactic effect of GDNF on corneal epithelial cells, a modified Boyden chamber assay was used. 4×10^5 cells from the either primary cultured cells or the corneal epithelial cell line were seeded onto tissue culture inserts containing a polyethylene terephthalate (PET) filter having a pore size of 8 μm (Falcon). Within 4 hours after seeding most cells had attached to the filter and formed a semiconfluent monolayer. The medium was then changed to SHEM without additives in the upper well and SHEM with GDNF (250 ng/ml) in the lower well. After 24 h of culture cells were removed from the surface of the insert by gentle scrubbing with a rubber policeman. Cells on the bottom of the insert (which had migrated through the filter) were fixed with −20° C. methanol and stained with crystal violet. The entire surface of the filters was screened for cells under the microscope.

The mark [8] stands for this setting: GDNF 200 ng/ml, within 10 minutes.
[9] abbreviates: GDNF 200 ng/ml, within 40 minutes.

T1 sequence (P07949 29-1114): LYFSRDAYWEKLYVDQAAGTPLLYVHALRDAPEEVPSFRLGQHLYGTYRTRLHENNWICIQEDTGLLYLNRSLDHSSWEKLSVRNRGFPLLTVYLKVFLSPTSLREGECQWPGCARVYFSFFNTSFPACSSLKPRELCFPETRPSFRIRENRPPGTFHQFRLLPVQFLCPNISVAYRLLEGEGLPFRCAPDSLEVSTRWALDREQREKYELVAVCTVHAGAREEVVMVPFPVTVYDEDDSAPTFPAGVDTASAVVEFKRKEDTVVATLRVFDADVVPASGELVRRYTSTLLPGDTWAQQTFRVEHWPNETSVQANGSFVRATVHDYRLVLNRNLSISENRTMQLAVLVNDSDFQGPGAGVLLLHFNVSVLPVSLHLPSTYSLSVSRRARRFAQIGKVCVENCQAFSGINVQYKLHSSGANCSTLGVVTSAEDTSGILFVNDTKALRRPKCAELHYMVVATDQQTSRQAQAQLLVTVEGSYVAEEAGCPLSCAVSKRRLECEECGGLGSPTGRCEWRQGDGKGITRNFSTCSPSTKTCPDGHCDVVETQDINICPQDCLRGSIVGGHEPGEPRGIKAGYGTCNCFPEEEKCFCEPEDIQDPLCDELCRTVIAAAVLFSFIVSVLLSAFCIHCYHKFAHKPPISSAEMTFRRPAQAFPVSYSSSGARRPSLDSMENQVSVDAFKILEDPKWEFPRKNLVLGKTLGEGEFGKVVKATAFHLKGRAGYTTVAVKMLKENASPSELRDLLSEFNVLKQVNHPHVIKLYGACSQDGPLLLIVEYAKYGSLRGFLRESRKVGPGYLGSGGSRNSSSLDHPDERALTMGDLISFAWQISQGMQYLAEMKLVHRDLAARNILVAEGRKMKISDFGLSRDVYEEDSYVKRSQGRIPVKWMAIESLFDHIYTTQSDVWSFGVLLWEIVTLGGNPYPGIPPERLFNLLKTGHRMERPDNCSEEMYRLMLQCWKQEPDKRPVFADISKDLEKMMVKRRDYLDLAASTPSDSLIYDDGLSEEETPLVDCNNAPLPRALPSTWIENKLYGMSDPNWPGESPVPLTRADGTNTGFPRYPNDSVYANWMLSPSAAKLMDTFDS

B1: GDNF: recombinant human GDNF having the amino acid sequence of human wild-type GDNF (GenBank L19063, L15306) (protein)
chain: SPDKQMAVLPRRERNRQAAAANPENSRGKGRRGQRGKNRGCVLTAIHLNVTDLGLGYETKEELIFRYCSGSCDAAETTYDKILKNLSRNRRLVSDKVGQACCRPIAFDDDLSFLDDNLVYHILRKHSAKRCGCI
Consider B1, for which the “proliferation of stromal keratocytes” value in assay [1] was “significantly enhanced”. Moreover, the “wound gap filled with cells” value in assay [2] was determined as 37.9±8.1%. In addition, the “gap in the cell monolayer filled” value in assay [3] is 30%±6.9. Moreover, the “gap in the cell monolayer filled” value in assay [4] is recorded as 16.5±6%. Further, in assay [5] (setting [8]), the “serine phosphorylation of Elk” value is listed as “significantly induced”; the “serine phosphorylation of MEK1” value was “significantly induced”; the “serine phosphorylation of cRaf” value is listed as “significantly induced”; the “tyrosine/threonine phosphorylation of Erk 1 and 2” value is given as “significantly induced”. In addition, in assay [5] (setting [9]), the “phosphorylation of Pyk2” value is listed as “phosphorylated” and the “tyrosine phosphorylation of FAK” value is “gradually increased”. Moreover, in assay [5] (in response to GDNF), the “phosphorylation of RSK” value is reported as “not detectable”. For the same molecule, in assay [6], the “time to induction of tyrosine phosphorylation of Ret” value is at most 5 min. The “increase of number of migrated cells over control” value in assay [7] was “more than 6 fold”. In assay [7] (8 μm pore size, 24 h, control 19±6.8), the “number of cells migrated through the filter” value was 117±37.6.
